Measurements taken from PMC10164081.

How the values were obtained:
[1] = molecular target: purified Ric-8B (peptide-binding thermal shift assay) (mouse) (UniProt Q80XE1); assay: differential scanning fluorimetry
Gαolf (human) = Gαolf (human) (UniProt P38405)
Sequence of Gαolf (human) (P38405 whole entry): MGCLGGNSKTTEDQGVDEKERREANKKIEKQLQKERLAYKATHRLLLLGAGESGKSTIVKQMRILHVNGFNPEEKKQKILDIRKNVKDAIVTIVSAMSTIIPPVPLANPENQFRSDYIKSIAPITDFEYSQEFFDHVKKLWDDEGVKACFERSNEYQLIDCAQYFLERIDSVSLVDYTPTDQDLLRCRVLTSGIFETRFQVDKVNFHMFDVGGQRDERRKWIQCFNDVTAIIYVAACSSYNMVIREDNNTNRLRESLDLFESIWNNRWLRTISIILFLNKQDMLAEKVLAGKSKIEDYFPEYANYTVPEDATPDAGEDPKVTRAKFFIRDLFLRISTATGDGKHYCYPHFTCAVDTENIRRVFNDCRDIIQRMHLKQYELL

Sequence of purified Ric-8B (peptide-binding thermal shift assay) (mouse) (Q80XE1 1-483): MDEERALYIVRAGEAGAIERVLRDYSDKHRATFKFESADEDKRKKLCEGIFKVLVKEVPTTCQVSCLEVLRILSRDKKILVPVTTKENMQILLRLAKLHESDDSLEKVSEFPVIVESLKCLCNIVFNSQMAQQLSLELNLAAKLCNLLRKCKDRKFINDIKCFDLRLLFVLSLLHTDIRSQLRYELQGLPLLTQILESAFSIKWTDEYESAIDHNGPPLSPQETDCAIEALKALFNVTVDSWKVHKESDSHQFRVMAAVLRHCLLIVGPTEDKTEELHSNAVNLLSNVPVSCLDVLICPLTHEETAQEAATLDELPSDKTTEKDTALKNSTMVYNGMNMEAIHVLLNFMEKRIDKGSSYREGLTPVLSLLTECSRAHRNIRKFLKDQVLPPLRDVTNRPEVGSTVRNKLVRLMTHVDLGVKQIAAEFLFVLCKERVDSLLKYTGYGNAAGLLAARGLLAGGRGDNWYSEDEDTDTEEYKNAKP

Row | maximal thermal shift (ΔTm) [1] [°C] | folding of the Gαolf-RLuc sensor (luminescence) in RIC-8B knockout HEK293T cells (Gαolf (human)) [% decrease] | Substance
1 | 3.3 | – | Gαs C-term amidated peptide
2 | – | 10 | Ric-8B with its ARM7 loop replaced by that of Ric-8A
